Residue numbers refer to the chain shown, from its start. In names and notes the source's numbering stands.

The results in this text go back to US20110150888A1 (Amgen, published 2011).

The chains are these.
T1: human hepcidin (mature, 25 amino acids) (human, mono-biotinylated in the ELISAs and on the KinExA beads (site not stated); unlabelled in solution and on the BIAcore chip)
T1 construct: the form is named in each assay field; also called rhuHepc; rhHepc
T1 peptide: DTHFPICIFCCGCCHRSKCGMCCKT

B1: antibody 15E1 (wild type) (antibody, V domains shown)
VH: QVQLVESGGGVVQPGRSLRLSCAASGFTFSSYGMHWVRQAPGKGLEWVAVIWYAESNKYYADSVKGRFTISRDNSKNTLYLQMNSLRAEDTAVYYCARAQEGIAPDAFDIWGQGTMVTVSS
VL: SYELTQPPSVSVSPGQTATITCSGDKLGERYACWYQQRPGQSPVLVIYQDSKRPSGIPERFSGSNSGNTATLTISGTQAMDEADYFCQAWYSSTNVLFGGGTKLTVL
notes: Human antibody
B2: 15E1 N57H (antibody, V domains shown)
VH: B1 VH with N57H
VL: B1 VL
notes: Histidine mutant of 15E1, transiently expressed in 293-6E cells; constant regions as in wild-type 15E1; also called N57H (heavy chain)
B3: 15E1 A99H (antibody, V domains shown)
VH: B1 VH with A99H
VL: B1 VL
notes: Histidine mutant of 15E1, transiently expressed in 293-6E cells; constant regions as in wild-type 15E1; also called A99H (heavy chain)
B4: 15E1 A107H (antibody, V domains shown)
VH: B1 VH with A107H
VL: B1 VL
notes: Histidine mutant of 15E1, transiently expressed in 293-6E cells; constant regions as in wild-type 15E1; also called A107H (heavy chain)
B5: antibody 1S3 (antibody, human IgG2, lambda, V domains shown)
VH: B1 VH
VL: YELTQPPSVSVSPGQTATITCSGDKLGERYASWYQQRPGQSPVLVIYQDIKRPSGIPERFSGSNSGNTATLTISGTQAMDEADYFCQAWYSSTNVLFGGGTKLTVLG
notes: Human antibody
B6: antibody 26F11 (antibody, V domains shown)
VH: B1 VH with S31N, A54V, E55G, I103M
VL: B1 VL with T19S, L27M, R38K, V44I, S51T, F86Y, L97V
notes: Human antibody
B7: murine antibody 2.7 (antibody, V domains shown)
VH: QIQLVQSGPELKKPGETVKISCKASGYTFTTYGMSWVKQAPGKGLKWMGWINTYSGVPTYADDFKGRFAFSLETSASTAYLQINNLKNEDTATYFCGRDHYYGEVAYWGQGTLVTVSA
VL: DIVLTQSPASLAVSLGQRATISCRASESVDSYGNSFMHWYQQKPGQPPKLLIYRASNLESGIPARFSGSGSRTDFTLTINPVEADDVATYYCHQSNEEYTFGGGTKLEIK
notes: Murine monoclonal antibody; murine IgG1 was used as its isotypic control; also called Ab2.7; Ab 2.7
B8: antibody 24E4 (antibody, V domains shown)
VH: QVQLVQSGAEVKEPGASVKVSCKASGYTFTSYGVSWVRQAPGQGLEWMGWISAYNGNTLYAQHLLGRVTMTTDTSTSTAYMELRSLRSDDTAVYYCAREDLGMGDYWGQGTLVTVSS
VL: QSVLTQPPSVSGAPGQRVTISCTGSSSNIGAGYGVYWYQQLPGTAPKLLIYGHNNRPSGVPDRFSGSKSDTSASLAITGLQAEDEADYYCQSYDSNLIGSVFGTGTKVTVL
notes: Human antibody from Xenomouse IgG2 or IgG4 mice
B9: antibody 1S1 (antibody, human IgG2, kappa, V domains shown)
VH: QVQLVQSGDEVKKPGASVKVSCKASGYTFIKYGISWVRQAPGQGLEWMGWIGAFNGNTDYARNLQARVTMTTDTSTSTAYMELRSLRSDDTAVYYCAREGWNDDYFSGLDVWGQGTTVTVSS
VL: EIVLTQSPGTLSLSPGERATLSCRASQSVSSNYLAWYQQKPGQAPRLLIYGASSRATGIPDRFSGSGSGTDFTLIISRLEPEDFVVYYCQQYGSSLTFGGGTKVEIKR
notes: Human antibody; also called Ab 1S1
B10: antibody 23F11 (antibody, V domains shown)
VH: QVQLQQSGPGLVKPSQTLSLTCAISGDSVSSNSAAWNWIRQSPSRGLEWLGRTYYRSKWFNDYAVSVQSRITINPDTSKNQFSLQLNSVTPEDTAVYYCARGIVFSYAMDVWGQGTTVTVSS
VL: NFMLTQPHSVSESPGKTVTISCTRSSGSIASYYVQWYQQRPGSSPTTVIYEDSQRPSGVPDRFSGSIDSSSNSASLTISGLKTEDEADYYCQSYDSSNVVFGGGTKLTVL
notes: Human antibody

In the first assay the target is T1, human hepcidin (mature, 25 amino acids). Kind of assay: ELISA, mono-biotinylated human hepcidin on Neutravidin plate, pH 6.0. On the procedure:
(§1) Differential pH binding of the antibodies listed above in Table 3 was then determined by ELISA. 50 μL of Neutravidin (Pierce) at 8 μg/mL in 1×PBS was coated upon a Nunc Maxisorp 384-well plate, and incubated at 37° C. for 1 hr. After blocking the wells with 0.1% BSA/PBS/0.05% Tween20 for 1 hour at room temperature, plates were washed six times with PBS/0.05% Tween20. 25 μL of mono-biotinylated hepcidin at 50 ng/mL in 0.1% BSA/PBS/0.05% Tween20 was added to the 384-well plate, and incubated at room temperature for 1 hour. The plates were next washed six times with PBS/0.05% Tween20. Starting hepcidin antibody concentrations were normalized to 1 μg/mL for pH 5.5 and 6.0 conditions and to 100 ng/mL for pH 7.4 conditions. The hepcidin antibodies were serially diluted 3-fold in PBS/1% NFDM pH 7.4 and 4-fold in PBS/1% NFDM pH 6.0 and 5.5. The dilutions and titrations were performed in polypropylene 96-well dilution plates, and then were transferred in duplicate to a Neutravidin-coated 384-well plate. The biotinylated hepcidin and antibodies were incubated for 2 hours at room temperature. The plate was next washed six times with PBS/0.05% Tween20. 25 μL it of goat anti-huIgG-horseradish peroxidase at a 1:7000 dilution in 0.1% BSA/PBS/0.05% Tween20 was next added to each well of the assay plate. The plate was finally washed six times in PBS/0.05% Tween20. Enhanced K-Blue 3,3′,5,5′-Tetramethylbenzidine (TMB) Substrate (Neogen) was added and the reaction stopped using 1 M H₃PO₄ after 10 minutes of incubation at room temperature. The absorption was measured at 450 nm on a plate reader. Binding data were analyzed by non-linear regression analysis (sigmoidal dose-response, variable slope) to generate EC₅₀ values using GraphPad Prism® software. […] Double combinations of these mutants were made.
On the technique in general: An ELISA detects its analyte on a solid surface through an enzyme-linked reagent.
The EC50 is the midpoint of the concentration-response curve. Consider B1, for which the 50% effective concentration (EC50) worked out at 2.3 ng/mL.

Turning to B2, the EC50 was 4 ng/mL.

With B3, the EC50 is 10.7 ng/mL.

For the molecule B4, the concentration giving a half-maximal response (EC50) amounted to 3.6 ng/mL.

For the next assay the target is unchanged. Kind of assay: BIAcore, recombinant human hepcidin immobilised on a CM5 chip, 50 nM antibody bound at pH 7.4, dissociation buffers of pH 7.4, 6 and 5.5 (curves not labelled by pH). On the procedure:
Off-rate analysis of dissociation at different pHs was also performed. A slow off-rate is expected to predict increased binding interaction over a longer period of time, while a faster off-rate is expected to predict decreased binding interaction. For example, a faster off-rate at lower pH is expected to predict greater release of antigen at lower pH. Solution equilibrium binding analysis was performed using BIAcore to study the off-rates of antibodies 1S1, 1S3, 2.7, 18B11, 23F11 and 26F11 with recombinant human hepcidin (SEQ ID NO: 9).
Immobilization of recombinant human hepcidin (rhuHepc) to a BIAcore sensor chip surface was performed according to manufacturer's instructions at a flow rate 10 μL/min of running buffer (DPBS: Dulbecco's Phosphate Buffer Salinel X, no CaCl or MgCl, with 0.005% Biacore surfactant P-20). The carboxylated matrix of the sensor chip was first activated with a 60 μL injection of a mixture containing 0.2 M EDC(N-ethyl-N-(dimethylamine-propyl)carbodiimide in water, from BIAcore) and 0.05M NHS (N-hydroxysuccinimide in water, from Biacore). 55 μL of recombinant human hepcidin (1 μg/ml in 10 mM Na-acetate pH4.0) was injected to immobilize onto the sensor chip. The excess reactive groups of the sensor chip were deactivated with an injection of 60 μL of ethanolamine (1.0M, from Biacore).
After rhuHepc was immobilized on the CM5 chip with low density, 50 nM of antibodies 1S1, 1S3, 2.7, 18B11, 23F11 and 26F11 were injected over and bound the rhuHepc surface at pH 7.4. Dissociation buffers with pH 7.4, pH6 and pH 5.5 were run over the bound surface. The dissociation curves were obtained.
A general note: SPR reads the build-up and loss of mass on a sensor chip optically.
In the case of B5, the binding result was “binds”.

With B6, the binding result is reported as “binds”.

For B7, the binding result is recorded as “binds”.

The next assay shares this target. Description: antibody at 1:250 dilution; KinExA / BIAcore named in the paragraph. For orientation: Kinetic exclusion samples the free partner from a solution-phase mixture.
In the case of B8, the “fold reduction in affinity at pH 6 compared to pH 7.4” value was roughly 10 fold.

Another assay shares this target. Kind of assay: KinExA solution equilibrium, human hepcidin-coated beads. As for the experimental part: SA-Sepharose beads were pre-coated with biotinylated human hepcidin (SEQ ID NO: 9) and blocked with BSA according to manufacturer's instructions. Antibodies and hepcidin were diluted in PBS/0.1% BSA/0.05% NaN₃ buffer. Fixed concentrations of antibodies 15E1, 15E1 W52H, 15E1 A99H, 15E1 N521-1, 15E1 A107H and 18B11 were incubated with various concentrations of human hepcidin at room temperature for 8 hours before being run through the human hepcidin-coated beads. The amount of the bead-bound antibody was quantified by fluorescently (Cy5)-labeled goat anti-murine-IgG (H+L) antibody (Jackson Immuno Research, West Grove, Pa.). The binding signal is proportional to the concentration of free antibody at equilibrium. Dissociation equilibrium constant (KD) was obtained from nonlinear regression of the competition curves using a dual-curve one-site homogeneous binding model (KinExATM Pro software).
The term Kd denotes the constant that tells how readily two partners part at equilibrium. B1: the dissociation constant (Kd) was determined as 37 pM.

In the case of B2, the Kd turned out to be 3000 pM.

For the molecule B3, the Kd is greater than 10000 pM.

As for B4, the Kd was 31 pM.

The target is the same in the next assay. Description: ELISA, mono-biotinylated human hepcidin on Neutravidin plate, pH 7.4. As for the experimental part: as §1
Consider B1, for which the EC50 stood at 2.3 ng/mL.

Turning to B2, the EC50 amounted to 1.8 ng/mL.

As to B3, the EC50 was 4.1 ng/mL.

Regarding B4, the EC50 came to 2 ng/mL.

For the next assay the target is unchanged. Kind of assay: ELISA, mono-biotinylated human hepcidin on Neutravidin plate, pH 5.5. On the procedure: as §1
With B1, the concentration for a half-maximal effect (EC50) worked out at 2.3 ng/mL.

As to B2, the EC50 was determined as 3.2 ng/mL.

B3: the EC50 is 29.1 ng/mL.

On to B4, for which the EC50 amounted to 3.7 ng/mL.

The target is the same in the next assay. Kind of assay: ELISA, mono-biotinylated human hepcidin on Neutravidin plate, pH 6.0 against pH 7.4. On the procedure:
as §1
In the case of B2, the “fold increase in EC50 as the pH was lowered to 6.0” value was no less than 1.5 fold.

Take B3: the “fold increase in EC50 as the pH was lowered to 6.0” value is no less than 1.5 fold.

For B4, the “fold increase in EC50 as the pH was lowered to 6.0” value is no less than 1.5 fold.

The target is the same in the next assay. Kind of assay: sandwich ELISA built from 1S1 and 23F11 (one curve for the pair of antibodies), hepcidin titrated; the axis gives hepcidin levels before a 50-fold pre-dilution.
The EC50 (read off the curve) is the midpoint of the concentration-response curve. As for B9, the concentration giving a half-maximal response (EC50 (read off the curve)) was roughly 100 ng/mL.

With B10, the “EC50 (read off the curve)” value was roughly 100 ng/mL.
